Assay results taken from patent US10175244B2, “Dominant negative HSP110 mutant and its use in prognosing and treating cancers” (INSERM (INSTITUT NATIONAL DE LA SANTÉ ET DE LA RECHERCHE …, priority 2011, dated 2019).

B1: HSP110wt: wild-type heat-shock 110 kDa protein, SEQ ID NO: 2 (protein, listed as Homo sapiens)
chain: MSVVGLDVGSQSCYIAVARAGGIETIANEFSDRCTPSVISFGSKNRTIGVAAKNQQITHANNTVSNFKRFHGRAFNDPFIQKEKENLSYDLVPLKNGGVGIKVMYMGEEHLFSVEQITAMLLTKLKETAENSLKKPVTDCVISVPSFFTDAERRSVLDAAQIVGLNCLRLMNDMTAVALNYGIYKQDLPSLDEKPRIVVFVDMGHSAFQVSACAFNKGKLKVLGTAFDPFLGGKNFDEKLVEHFCAEFKTKYKLDAKSKIRALLRLYQECEKLKKLMSSNSTDLPLNIECFMNDKDVSGKMNRSQFEELCAELLQKIEVPLYSLLEQTHLKVEDVSAVEIVGGATRIPAVKERIAKFFGKDISTTLNADEAVARGCALQCAILSPAFKVREFSVTDAVPFPISLIWNHDSEDTEGVHEVFSRNHAAPFSKVLTFLRRGPFELEAFYSDPQGVPYPEAKIGRFVVQNVSAQKDGEKSRVKVKVRVNTHGIFTISTASMVEKVPTEENEMSSEADMECLNQRPPENPDTDKNVQQDNSEAGTQPQVQTDAQQTSQSPPSPELTSEENKIPDADKANEKKVDQPPEAKKPKIKVVNVELPIEANLVWQLGKDLLNMYIETEGKMIMQDKLEKERNDAKNAVEEYVYEFRDKLCGPYEKFICEQDHQNFLRLLTETEDWLYEEGEDQAKQAYVDKLEELMKIGTPVKVRFQEAEERPKMFEELGQRLQHYAKIAADFRNKDEKYNHIDESEMKKVEKSVNEVMEWMNNVMNAQAKKSLDQDPVVRAQEIKTKIKELNNTCEPVVTQPKPKIESPKLERTPNGPNIDKKEEDLEDKNNFGAEPPHQNGECYPNEKNSVNMDLD
B2: HSP110delE9: truncated HSP110 protein (SEQ ID NO: 1) from mRNA lacking exon 9, devoid of the substrate binding domain (protein, listed as Homo sapiens)
chain: MSVVGLDVGSQSCYIAVARAGGIETIANEFSDRCTPSVISFGSKNRTIGVAAKNQQITHANNTVSNFKRFHGRAFNDPFIQKEKENLSYDLVPLKNGGVGIKVMYMGEEHLFSVEQITAMLLTKLKETAENSLKKPVTDCVISVPSFFTDAERRSVLDAAQIVGLNCLRLMNDMTAVALNYGIYKQDLPSLDEKPRIVVFVDMGHSAFQVSACAFNKGKLKVLGTAFDPFLGGKNFDEKLVEHFCAEFKTKYKLDAKSKIRALLRLYQECEKLKKLMSSNSTDLPLNIECFMNDKDVSGKMNRSQFEELCAELLQKIEVPLYSLLEQTHLKVEDVSAVEIVGGATRIPAVKERIAKFFGKDISTTLNADEAVARGCALQC
B3: TRAIL: cell death factor, Tumor necrosis factor-related-apoptosis-inducing ligand, recombinant (protein, UniProt P50591 1-281, looked up)
Tumor necrosis factor ligand …: MAMMEVQGGPSLGQTCVLIVIFTVLLQSLCVAVTYVYFTNELKQMQDKYSKSGIACFLKEDDSYWDPNDEESMNSPCWQVKWQLRQLVRKMILRTSEETISTVQEKQQNISPLVRERGPQRVAAHITGTRGRSNTLSSPNSKNEKALGRKINSWESSRSGHSFLSNLHLRNGELVIHEKGFYYIYSQTYFRFQEEIKENTKNDKQMVQYIYKYTSYPDPILLMKSARNSCWSKDAEYGLYSIYQGGIFELKENDRIFVSVTNEHLIDMDHEASFFGAFLVG
modifications: His tag
notes: cell death factor, Tumor necrosis factor-related-apoptosis-inducing ligand, recombinant

Tests used:
[1] = system: HSP90; experiment: Immunoprecipitation and Western-blotting, association with HSP90; format: binding; details: HCT116 cells, immunoprecipitation
Method: (§1) Transfected cells were first lysed in lysis buffer (50 mM Hepes (pH 7.6), 150 mM NaCl, 5 mM EDTA and 0.1% NP40) followed by immunoprecipitation using GFP-tag antibody. Immunoprecipitates were separated in a 10% SDS-polyacrylamide gel and then transferred to PVDF membranes using a wet transfer apparatus (BioRad, Hercules, Califomia, USA). Membranes were first probed ovemight using primary antibodies: HA-tag antibody was from Covance (Eurogentec, Angers, France), 14-3-3 from Santa-Cruz (TebuBio, Le Perray en Yvelines, France) and GFP-tag antibody from Millipore (Molsheim, France).
(§2) The skipping of HSP110 exon 9 is frameshift and therefore generates a premature terminaison codon in exon 10 of the HSP110delE9 mRNA. HSP110delE9 is a truncated protein that contains the N-terminal ATP binding domain but is devoid of the substrate binding domain (FIG. 3). We performed several functional assays to better understand the role of increased expression of HSP110delE9 in MSI CRC cell lines. Chaperone activity was first studied using a protein thermolability assay that measures the in vitro ability of HSP110 to block protein aggregation induced by a heat shock using Murine Embryonic Fibroblasts (MEF).

[2] = system: denatured protein substrates; details: compared to HSC70 and HSP70; cited from earlier work
[3] = target: T1, HSP70 (Homo sapiens, UniProt P0DMV8); experiment: Immunoprecipitation and Western-blotting, association with HSP70; format: binding; details: HCT116 cells, immunoprecipitation
T1 construct: HA; expressed in transfected cells; host or cells: HCT116
T1 sequence (P0DMV8 whole entry): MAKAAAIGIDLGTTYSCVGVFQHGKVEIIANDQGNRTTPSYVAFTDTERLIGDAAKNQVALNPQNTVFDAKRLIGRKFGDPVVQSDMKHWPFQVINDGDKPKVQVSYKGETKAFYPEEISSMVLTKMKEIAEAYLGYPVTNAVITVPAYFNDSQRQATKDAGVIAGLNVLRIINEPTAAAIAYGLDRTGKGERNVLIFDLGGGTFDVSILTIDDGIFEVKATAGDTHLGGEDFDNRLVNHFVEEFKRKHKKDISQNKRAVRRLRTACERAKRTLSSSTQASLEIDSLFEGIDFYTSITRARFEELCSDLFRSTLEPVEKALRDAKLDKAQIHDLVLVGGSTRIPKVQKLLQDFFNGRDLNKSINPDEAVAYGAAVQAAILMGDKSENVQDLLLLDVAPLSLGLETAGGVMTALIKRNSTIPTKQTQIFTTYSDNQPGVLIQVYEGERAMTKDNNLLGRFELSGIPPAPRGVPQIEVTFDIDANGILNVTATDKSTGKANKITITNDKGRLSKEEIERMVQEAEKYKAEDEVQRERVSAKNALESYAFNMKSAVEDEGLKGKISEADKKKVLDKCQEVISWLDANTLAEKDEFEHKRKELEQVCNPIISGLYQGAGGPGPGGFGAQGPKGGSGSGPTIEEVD
Method: as §1, §2

[4] = target: T2, HSP27 (Homo sapiens, UniProt P04792); experiment: Immunoprecipitation and Western-blotting, association with HSP27; format: binding; details: HCT116 cells, immunoprecipitation
T2 construct: HA; expressed in transfected cells; host or cells: HCT116
T2 sequence (P04792 whole entry): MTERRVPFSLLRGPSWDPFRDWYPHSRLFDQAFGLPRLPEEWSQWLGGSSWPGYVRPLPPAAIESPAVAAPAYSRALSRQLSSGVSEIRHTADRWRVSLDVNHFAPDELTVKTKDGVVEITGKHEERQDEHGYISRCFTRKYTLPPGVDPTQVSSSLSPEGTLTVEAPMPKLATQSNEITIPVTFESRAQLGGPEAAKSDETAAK
Method: as §1, §2

[5] = system: protein aggregation induced by a heat shock; experiment: HSP110 chaperone activity, protein thermolability assay; format: biochemical, mouse; details: for anti-aggregation chaperone activity: protein extracts of transfected MEF heated at 55° C. for 1 h
Method: FIG. 9 depicts the effect of HSP110delE9 expression on protein aggregation. Protein extracts from MEF HSF1^+/+ cells transfected with HSP70, HSP110 and/or HSP110delE9 were heated at 55° C. for 1 h. The ratio between the initial amount of soluble protein before and after heat shock allowed to the quantification of protein aggregation. Each bar is the mean value of 4 different experiments. *P<0.05.
HSP110 chaperone activity was evaluated using a protein thermolability assay. Total protein (2 mg/mL) from HSF1^−/− MEFs that had been transfected with HSP70 (positive control), HSP27 (negative control), HSP110 or Mutant HSP110 (Dc Assay Kits, Bio-Rad, France) was heated at 55° C. for 1 hour. After centrifugation to eliminate aggregated proteins, the remaining native proteins in the supernatant were quantified. The ratio between the initial amount of soluble protein and that obtained after heating allowed for the quantification of protein aggregation.
as §2

[6] = system: HCT116 cells; experiment: Cell death analysis, TRAIL-induced apoptosis in transfected cells; format: cell-based, human; details: for protective (anti-apoptotic) effect against TRAIL-induced apoptosis: transfected HCT116 cells
Method: FIG. 11 depicts the effect of HSP110delE9 on apoptosis. HCT116 cells transfected with GFP-tagged HSP110, HSP110delE9 or an empty vector (GFP) were treated with recombinant TRAIL ligand (5 h) at the indicated doses. Apoptosis was measured by FACS analysis of caspase 3 activity.
FIG. 12 depicts the effect of increasing dose of HSP110delE9 on apoptosis. HCT116 cells transfected with GFP-tagged HSP110 and increased doses of HSP110delE9 or an empty vector (GFP) were treated with recombinant TRAIL ligand (60 ng/ml, 5 h) and the percentage of apoptosis was determined by DAPI staining (chromatin condensation).
(§3) Adherent cells were plated onto 12-well culture plates (1.5×10^5 cells/well) in complete medium. When indicated, cells were treated with TRAIL (150 ng/ml or 500 ng/ml) for 4 hours and cell death was measured by Hoechst 33342 staining (Sigma-Aldrich). Following treatment for 48 h with oxaliplatin (OxaPt, 20 and 40 μM), apoptotic cells were detected by Apo2.7 staining. Briefly, cells were harvested, washed in PBS and permeabilized with digitonin (100 mg/ml, 10 min at 4° C.). Cells were incubated with anti-Apo2.7 antibody and apoptotic cells were analyzed by flow cytometry using a LSR2 flow cytometer (Becton Dickinson, Franklin Lakes, N.J.).
(§4) A number of studies have previously described the anti-apoptotic role of HSP110. We therefore investigated the effect on apoptosis of the HSP110 truncation due to exon 9 skipping. HCT116 cells were transfected with HSP110wt or HSP110delE9 and apoptosis was triggered using the cell death factor, TRAIL (Tumor necrosis factor-related-apoptosis-inducing ligand).

[7] = target: T3, HSP110wt (Homo sapiens, UniProt Q92598); experiment: Immunoprecipitation and Western-blotting, association with HSP110wt; format: binding; details: HCT116 cells, immunoprecipitation
T3 construct: host or cells: HCT116
Method: FIG. 10 depicts the analysis of HSP110delE9 to wild-type HSP110. Cell lysates from HCT116 transfected with GFP-tagged HSP110 and/or HSP110delE9 were subjected to immunoprecipitation using HSP110 that recognizes the C-terminus of HSP110. After migration, membranes were immunoblotted with GFP antibody. Inputs: protein level in total cell lysates.
as §1
as §2, with “Chaperone activity was first studied using a protein thermolability assay that measures the in vitro ability of HSP110 to block protein aggregation induced by a heat shock using Murine Embryonic Fibroblasts (MEF).” left out

[8] = system: MSI colon tumor cell lines; experiment: Apoptosis on re-expression of HSP110delE9 (NMD experiments); format: cell-based; details: data not shown
From the text: The HSP110delE9 transcript contains a premature stop codon (PTC). Consequently, it is partially degraded by the NMD system in the tumor cells. […] Synthesis of chemical or biological compounds mimicking the HSP110delE9 activity in tumor cells, in particular mimicking its anti-apoptotic effect may have a major therapeutical interest in the treatment of CRCs. In the same way, the use of compounds susceptible to promote the HSP110delE9 expression in the tumor cells would be of great interest. […] Different pharmacological inhibitors of NMD are now available. They can be used to reproduce these experiments, both in vitro in different cell models and in animal models (nude mice xenografted with MSI CRC in first-line).

[9] = system: MSI (HCT116, LoVo) and MSS (SW480) CRC cell lines; experiment: Cell death analysis, sensitivity of transfected CRC cell lines to anticancer agents; format: cell-based, human
Method: FIG. 13 depicts the pro-apoptotic effect of HSP110delE9 on tumor cells treated with a chemotherapeutic agent. HCT116 (MSI) or SW480 (MSS) cells were transfected with HSP110wt (1.5 μg) and co-transfected with two different doses (0.5 and 1 μg) of either GFP-empty vector or HSP110delE9. After treatment with oxaliplatin (Oxa, 40 μM, 48 h), apoptosis was assessed by FACS analysis. *P<0.05.
as §3, §4

Molecule | association with HSP90 [1] | efficiency at binding and stabilizing denatured protein substrates [2] | association with HSP70 [3] | association with HSP27 [4] | anti-aggregation chaperone activity [5] | protective (anti-apoptotic) effect against TRAIL-induced apoptosis [6] | association with HSP110wt [7] | apoptosis on re-expression [8] | effect on anti-aggregation activity of HSP110wt ([5]; HSP110delE9 added at the same time as HSP110wt) | effect on anti-apoptotic function of HSP110wt ([6]; HCT116 co-transfected with HSP110wt and increasing doses of HSP110delE9, TRAIL) | sensitization of colon cancer cells to chemotherapeutic agents ([9]; 5-fluorouracil and oxaliplatin, in vitro) | sensitivity of CRC cell lines to oxaliplatin ([9]; over-expression in HCT116, LoVo, SW480) | induction of apoptosis ([6]; HCT116 cells treated with TRAIL)
B1 | not with HSP90 | approximately four-fold more efficient | efficiently interacted with HSP70 | efficiently interacted | anti-aggregation activity comparable to other HSPs such as HSP70 | exerted a protective effect |  |  |  |  |  |  | 
B2 |  |  | lost the ability to associate with HSP70 and HSP27 | lost the ability to associate with HSP70 and HSP27 | lost this chaperone activity | lacked the protective properties of HSP110wt | associated strongly with HSP110wt | causes apoptosis of MSI colon tumor cell lines | anti-aggregation activity of HSP110wt was abrogated | able to block its anti-apoptotic function in a dose-dependent manner | caused the sensitization of colon cancer cells | increased their sensitivity to anticancer agents such as oxaliplatin | 
B3 |  |  |  |  |  |  |  |  |  |  |  |  | induced dose dependent apoptosis
